Patent publication US9988424 (DUKE UNIVERSITY, dated 2018)

Key:
A.9004SS V1/V2 tags = biological target: T1, A.9004SS V1/V2 tags; test: ELISA, OD405 at 10 ug/ml
T1 V1V2 tags construct: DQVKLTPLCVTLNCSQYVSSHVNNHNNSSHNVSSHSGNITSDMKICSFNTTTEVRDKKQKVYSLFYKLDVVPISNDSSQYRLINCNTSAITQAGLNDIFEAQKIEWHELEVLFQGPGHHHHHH

AE.con gp140CF = test: ELISA, OD405 at 10 ug/ml
B.62357 gp140C = biological target: T2, B.62357 gp140C; test: ELISA, OD405 at 10 ug/ml
T2 construct: also called B.62357 140C

B.63521_V1/V2 tags = test: ELISA, OD405 at 10 ug/ml
B.Case A2 V1/V2 tags = test: ELISA, OD405 at 10 ug/ml
B.con gp140CF = test: ELISA, OD405 at 10 ug/ml
Con 6 gp120 = test: ELISA, OD405 at 10 ug/ml
D.9009SA V1/V2 tags = test: ELISA, OD405 at 10 ug/ml
C.CAP206 gp140CF.12 = C.CAP206 gp140CF.12 (HIV-1); test: ELISA, OD405 at 10 ug/ml
gp70 B.CaseA2 V1/V2 = biological target: T3, gp70 B.CaseA2 V1/V2 (HIV-1 V1V2 on murine leukemia virus gp70); test: ELISA, OD405 at 10 ug/ml
T3 construct: also called B.gp70CaseA2 V1/V2; gp70 B.CaseAV1V2
T3 chain: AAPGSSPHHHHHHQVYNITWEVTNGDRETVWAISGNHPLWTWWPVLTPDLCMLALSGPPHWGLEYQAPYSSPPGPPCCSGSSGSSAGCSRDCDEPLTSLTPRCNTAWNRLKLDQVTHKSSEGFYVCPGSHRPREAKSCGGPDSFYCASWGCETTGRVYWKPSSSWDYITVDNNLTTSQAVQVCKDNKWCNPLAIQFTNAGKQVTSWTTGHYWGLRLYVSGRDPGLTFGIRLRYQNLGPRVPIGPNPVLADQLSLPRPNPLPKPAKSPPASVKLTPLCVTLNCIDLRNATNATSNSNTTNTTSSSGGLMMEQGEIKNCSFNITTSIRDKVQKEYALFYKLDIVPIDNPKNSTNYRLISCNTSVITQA

C.1086 V1V2 Tags = C.1086 V1V2 Tags (HIV-1); test: ELISA, OD405 at 10 ug/ml
gp70 C.1086 V1/V2 = biological target: T4, gp70 C.1086 V1/V2 (HIV-1 V1V2 on murine leukemia virus gp70); test: ELISA, OD405 at 10 ug/ml
T4 construct: also called C.gp70 1086C V1V2; C.1086gp70V1V2
T4 chain: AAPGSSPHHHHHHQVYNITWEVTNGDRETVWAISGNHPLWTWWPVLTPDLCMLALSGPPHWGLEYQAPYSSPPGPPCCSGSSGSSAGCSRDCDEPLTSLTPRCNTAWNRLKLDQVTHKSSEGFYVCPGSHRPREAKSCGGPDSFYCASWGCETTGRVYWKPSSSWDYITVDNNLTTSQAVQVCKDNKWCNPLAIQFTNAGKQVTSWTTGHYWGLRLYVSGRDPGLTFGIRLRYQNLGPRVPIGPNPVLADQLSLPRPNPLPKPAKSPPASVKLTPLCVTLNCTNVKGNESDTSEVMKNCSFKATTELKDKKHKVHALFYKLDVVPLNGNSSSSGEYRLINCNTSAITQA

A.Q23 V1V2 tags = A.Q23 V1V2 tags (HIV-1); test: ELISA, OD405 at 10 ug/ml
AE.97CNG2XF gp140CF = biological target: T5, AE.97CNG2XF gp140CF (HIV-1); test: ELISA, OD405 at 10 ug/ml
T5 construct: also called E.97CNGX2F gp140CF

B.9021 gp140C = B.9021 gp140C (HIV-1); test: ELISA, OD405 at 10 ug/ml
SIV CPZ US-1 gp140CF = biological target: T6, SIV CPZ US-1 gp140CF (SIVcpz); test: ELISA, OD405 at 10 ug/ml
T6 construct: also called US-1 SIVCPZ gp140CF
T6 chain: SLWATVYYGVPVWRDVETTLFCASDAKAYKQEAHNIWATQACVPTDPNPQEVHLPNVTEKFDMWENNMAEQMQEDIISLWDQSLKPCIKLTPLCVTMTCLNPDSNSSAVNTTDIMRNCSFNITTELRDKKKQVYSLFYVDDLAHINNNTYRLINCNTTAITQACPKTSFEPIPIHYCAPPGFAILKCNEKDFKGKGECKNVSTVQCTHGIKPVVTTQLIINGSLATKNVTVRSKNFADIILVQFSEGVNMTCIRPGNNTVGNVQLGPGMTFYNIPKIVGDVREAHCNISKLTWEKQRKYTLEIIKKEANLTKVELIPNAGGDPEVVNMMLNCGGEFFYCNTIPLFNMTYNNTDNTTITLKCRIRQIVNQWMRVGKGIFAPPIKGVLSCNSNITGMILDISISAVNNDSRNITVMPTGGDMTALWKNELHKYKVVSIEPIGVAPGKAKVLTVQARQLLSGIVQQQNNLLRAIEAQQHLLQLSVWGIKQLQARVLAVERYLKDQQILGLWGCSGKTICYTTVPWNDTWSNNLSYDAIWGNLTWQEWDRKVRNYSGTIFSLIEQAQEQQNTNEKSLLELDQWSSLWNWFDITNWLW

Env of AE.92TH023 virus = Env of AE.92TH023 virus (HIV-1); test: cell-based or functional assay
Env of AE.CM244 virus = Env of AE.CM244 virus (HIV-1); test: cell-based or functional assay
Env of SHIV SF162P3 = Env of SHIV SF162P3 (SHIV); test: cell-based or functional assay
Env of SHIV-SF162P4 = Env of SHIV-SF162P4 (SHIV); test: cell-based or functional assay
Env of SHIV-1157ipEL-p = Env of SHIV-1157ipEL-p (SHIV); test: cell-based or functional assay
Env of SHIV-1157ipd3N4 = Env of SHIV-1157ipd3N4 (SHIV); test: cell-based or functional assay

B1: PG16 reverted unmutated ancestor antibody (antibody, V domains shown)
VH: QVQLVESGGGVVQPGRSLRLSCAASGFTFSSYGMHWVRQAPGKGLEWVAVISYDGSNKYYADSVKGRFTISRDNSKNTLYLQMNSLRAEDTAVYYCAREAGGPIWHDDVKYYDFNDGYYYYYYMDVWGKGTTVTVSS
VL: QSALTQPASVSGSPGQSITISCTGTSSDVGSYNLVSWYQQHPGKAPKLMIYEVSKRPSGVSNRFSGSKSGNTASLTISGLQAEDEADYYCCSLTDRSHRIFGGGTKLTVL
notes: also called PG16 RUA; PG16_RUA
binding result (A.9004SS V1/V2 tags): no binding (tested: 10 ug/ml) | binding result (AE.con gp140CF): no binding (tested: 10 ug/ml) | binding result (B.62357 gp140C): no binding (tested: 10 ug/ml) | binding result (B.63521_V1/V2 tags): no binding (tested: 10 ug/ml) | binding result (B.Case A2 V1/V2 tags): no binding (tested: 10 ug/ml) | binding result (B.con gp140CF): no binding (tested: 10 ug/ml) | binding result (Con 6 gp120): no binding (tested: 10 ug/ml) | binding result (D.9009SA V1/V2 tags): no binding (tested: 10 ug/ml) | binding result (C.CAP206 gp140CF.12): no binding (tested: 10 ug/ml) | binding result (gp70 B.CaseA2 V1/V2): no binding (tested: 10 ug/ml) | binding result (C.1086 V1V2 Tags): no binding (tested: 10 ug/ml) | binding result (gp70 C.1086 V1/V2): no binding (tested: 10 ug/ml) | binding result (A.Q23 V1V2 tags): no binding (tested: 10 ug/ml) | binding result (AE.97CNG2XF gp140CF): no binding (tested: 10 ug/ml) | binding result (B.9021 gp140C): no binding (tested: 10 ug/ml) | binding result (SIV CPZ US-1 gp140CF): no binding (tested: 10 ug/ml)

B2: CH59 (antibody, V domains shown)
VH: EVQLVESGGGLVQPGRSLRLSCAASGFTFDDGAMHWVRQAPGKGLEWVSGISWNSNIIAYADSVKGRFTISRDNAKNSLYLEMNSLRVEDTALYYCAKDSPRGELPLNYWGQGTLVTVSS
VL: SYELTQPPSVSVSPGQTARITCSGDALPKNYAYWYQQKSGQAPVLVIYEDSKRPSGIPERFSGSSSGTMATLTISGAQVEDEADYYCYSTDSSGNHRVFGGGTKLTVL
notes: also called mAb CH59
EC50, neutralization of AE.TH023 (Env of AE.92TH023 virus): 12.1 µg/mL | EC50, neutralization of AE.CM244 (Env of AE.CM244 virus): > 50 µg/mL | EC50, neutralization of SHIV SF162P3 (Env of SHIV SF162P3): > 50 µg/mL | EC50, neutralization of SHIV-SF162P4 (Env of SHIV-SF162P4): > 50 µg/mL | EC50, neutralization of SHIV-1157ipEL-p (Env of SHIV-1157ipEL-p): 24.6 µg/mL | EC50, neutralization of SHIV-1157ipd3N4 (Env of SHIV-1157ipd3N4): > 50 µg/mL
